Laboratory results published in publication PMC10330844 (Traffic (Copenhagen, Denmark), 2023).

T1: Syntaxin-5 (STX5), endogenous, as precipitated by the anti-STX5 antibody (human (endogenous in HEK293T), UniProt Q13190 1-355)
T1 sequence (looked up): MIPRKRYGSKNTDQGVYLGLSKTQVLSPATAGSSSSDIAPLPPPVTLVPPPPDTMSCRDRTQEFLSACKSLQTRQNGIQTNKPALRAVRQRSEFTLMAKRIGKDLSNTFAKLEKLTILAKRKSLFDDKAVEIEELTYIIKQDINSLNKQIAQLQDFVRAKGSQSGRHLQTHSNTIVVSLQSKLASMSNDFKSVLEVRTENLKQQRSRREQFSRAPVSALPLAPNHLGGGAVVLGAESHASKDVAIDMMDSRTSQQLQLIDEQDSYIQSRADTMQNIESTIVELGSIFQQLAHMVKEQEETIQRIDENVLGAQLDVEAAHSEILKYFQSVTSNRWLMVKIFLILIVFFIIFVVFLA

T2: SNAP29-His6 (SNAP29 in pET23a) (UniProt O95721 1-258)
T2 sequence (looked up): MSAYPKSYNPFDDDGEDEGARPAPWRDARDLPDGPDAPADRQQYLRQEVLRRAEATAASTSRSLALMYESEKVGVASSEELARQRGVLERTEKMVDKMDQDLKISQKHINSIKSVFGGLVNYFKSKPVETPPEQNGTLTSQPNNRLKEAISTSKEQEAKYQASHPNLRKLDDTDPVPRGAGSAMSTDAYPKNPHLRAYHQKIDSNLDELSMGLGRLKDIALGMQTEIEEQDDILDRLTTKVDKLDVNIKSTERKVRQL


Legend:
[1] = target: T1, Syntaxin-5 (STX5), endogenous, as …; experiment: co-IP
[2] = target: T2, SNAP29-His6 (SNAP29 in pET23a); experiment: pull-down

percent of the cellular protein present in STX5 complexes (GS28 KO cells) [1] [%]	stoichiometry N [2]	Binder
< 25	–	VTI1B, endogenous (natural protein, human (endogenous in HEK293T), UniProt Q9UEU0 1-232, looked up) MASSAASSEHFEKLHEIFRGLHEDLQGVPERLLGTAGTEEKKKLIRDFDEKQQEANETLAEMEEELRYAPLSFRNPMMSKLRNYRKDLAKLHREVRSTPLTATPGGRGDMKYGIYAVENEHMNRLQSQRAMLLQGTESLNRATQSIERSHRIATETDQIGSEIIEELGEQRDQLERTKSRLVNTSENLSKSRKILRSMSRKVTTNKLLLSIIILLELAILGGLVYYKFFRSH
< 25	–	VAMP7, endogenous (natural protein, human (endogenous in HEK293T), UniProt P51809 1-220, looked up) MAILFAVVARGTTILAKHAWCGGNFLEVTEQILAKIPSENNKLTYSHGNYLFHYICQDRIVYLCITDDDFERSRAFNFLNEIKKRFQTTYGSRAQTALPYAMNSEFSSVLAAQLKHHSENKGLDKVMETQAQVDELKGIMVRNIDLVAQRGERLELLIDKTENLVDSSVTFKTTSRNLARAMCMKNLKLTIIIIIVSIVFIYIIVSPLCGGFTWPSCVKK

Second part, the binder before the results:

Binder	percent of the cellular protein present in STX5 complexes (GS28 KO cells) [1] [%]	stoichiometry N [2]
GST-STX5 (rSTX5 (55-333) in pGEX-KG) (domain or fragment, UniProt Q08851 55-333, looked up) MSCRDRTQEFLSACKSLQSRQNGIQTNKPALHATRQCSEFTLMARRIGKDLSNTFAKLEKLTILAKRKSLFDDKAVEIEELTYIIKQDINSLNKQIAQLQDFVRAKGSQSGRHLQTHSNTIVVSLQSKLASMSNDFKSVLEVRTENLKQQRNRREQFSRAPVSALPLAPNNLGGGPIVLGGESRASRDVAIDMMDPRTSQQLQLIDEQDSYIQSRADTMQNIESTIVELGSIFQQLAHMVKEQEETIQRIDENVLGAQLDVEAAHSEILKYFQSVTSNR	–	1
SNAP29, endogenous (natural protein, human (endogenous in HEK293T), UniProt O95721 1-258, looked up) MSAYPKSYNPFDDDGEDEGARPAPWRDARDLPDGPDAPADRQQYLRQEVLRRAEATAASTSRSLALMYESEKVGVASSEELARQRGVLERTEKMVDKMDQDLKISQKHINSIKSVFGGLVNYFKSKPVETPPEQNGTLTSQPNNRLKEAISTSKEQEAKYQASHPNLRKLDDTDPVPRGAGSAMSTDAYPKNPHLRAYHQKIDSNLDELSMGLGRLKDIALGMQTEIEEQDDILDRLTTKVDKLDVNIKSTERKVRQL	~35	–
